Assay results as given in PMC11928522.

How the values were obtained:
[1] = biological target: T1, LPA66-BFP;MBP-GFP-MORF8 (diffuse) (Arabidopsis thaliana;Arabidopsis …, UniProt Q9FI80;Q9LKA5 35-515;1-395, |); assay: EMSA
T1 sequence 1: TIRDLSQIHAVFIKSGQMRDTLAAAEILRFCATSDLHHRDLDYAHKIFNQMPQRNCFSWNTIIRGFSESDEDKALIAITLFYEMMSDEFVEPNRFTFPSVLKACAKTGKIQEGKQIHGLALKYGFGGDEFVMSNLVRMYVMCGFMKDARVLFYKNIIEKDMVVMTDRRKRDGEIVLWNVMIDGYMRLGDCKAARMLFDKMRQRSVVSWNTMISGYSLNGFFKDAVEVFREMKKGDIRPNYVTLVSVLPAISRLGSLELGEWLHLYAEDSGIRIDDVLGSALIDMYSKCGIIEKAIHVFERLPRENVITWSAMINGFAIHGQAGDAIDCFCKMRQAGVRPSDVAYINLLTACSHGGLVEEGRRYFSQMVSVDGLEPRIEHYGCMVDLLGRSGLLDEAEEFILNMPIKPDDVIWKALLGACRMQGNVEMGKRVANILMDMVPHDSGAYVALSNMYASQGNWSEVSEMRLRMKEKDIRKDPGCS
T1 sequence 2: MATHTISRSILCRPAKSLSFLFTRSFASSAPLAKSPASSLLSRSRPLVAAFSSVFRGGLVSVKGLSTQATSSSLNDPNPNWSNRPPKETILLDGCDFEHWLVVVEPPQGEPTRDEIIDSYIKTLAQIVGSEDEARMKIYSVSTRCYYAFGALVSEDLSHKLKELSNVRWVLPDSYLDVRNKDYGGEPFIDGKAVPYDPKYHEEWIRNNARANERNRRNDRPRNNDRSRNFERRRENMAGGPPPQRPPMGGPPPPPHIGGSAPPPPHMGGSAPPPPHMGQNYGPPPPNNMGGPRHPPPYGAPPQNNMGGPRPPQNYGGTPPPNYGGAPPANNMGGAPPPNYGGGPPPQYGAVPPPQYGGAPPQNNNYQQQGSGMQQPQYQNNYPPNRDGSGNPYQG

GFP-MORF8 (condensates) = biological target: T2, GFP-MORF8 (condensates) (Arabidopsis thaliana, UniProt Q9LKA5 1-395); assay: condensate partitioning
T2 sequence: T1 sequence 2

LPA66-BFP = biological target: T3, LPA66-BFP (Arabidopsis thaliana, UniProt Q9FI80 35-515); assay: EMSA after sedimentation
T3 sequence: T1 sequence 1

Measured: binding result

UAGCUGUACCUACCGUUUCUUUU (ssRNA) [psbF RNA probe]
binds: all assays above
